From patent publication US11046988B2, “Process for the modification of a glycoprotein using a β-(1,4)-N-acetylgalactosaminyl transferase or a mutant thereof” (Synaffix B.V., priority 2014, dated 2021)

Columns and labels:
Format in all cases: biochemical
[1] = tested on: GlcNAc-Man5-GlcNAc-GlcNAc(Fuc)-substituted trastuzumab (formula 26); experiment: Glycosyltransfer of GalNAz to GlcNAc-Man5-GlcNAc-GlcNAc(Fuc)-substituted trastuzumab, MS analysis; settings: UDP-GalNAz 0.5 mM, CeGalNAcT 0.1 mg/mL, 10 mM MnCl2, pH 8.0, 16 hours, 30° C.
Procedure: Trastuzumab transiently expressed in the presence of swainsonine as described in Example 18 (10 mg/mL) was incubated with neuraminidase (0.5 mU/mg IgG) from Vibrio cholerae (commercially available from Sigma-aldrich) in 100 mM sodium acetate pH 6.0 and 2 mM CaCl2 for 16 hrs, which led to complete removal of the sialic acid (two major heavy chain products of 50712 and 50874 Da which correspond to approximately 20 and 70% of the total heavy chain products). When the same reaction was performed in the presence of β(1,4)-galactosidase (3 mU/mg IgG) from Streptococcus pneumoniae (commercially available from Calbiochem), a single major heavy chain product was observed corresponding to trastuzumab with a GlcNAc-Man5-GlcNAc-GlcNAc(Fuc)-substituted heavy chain (c=d=0, 50712 Da, ±90% of total heavy chain product, and minor heavy chain products between 50700 and 50900 Da).
A solution of 50 μg (modified) IgG, 1 M Tris-HCl pH 8.0, 1 mM EDTA and 30 mM DTT with a total volume of approximately 70 μL was incubated for 20 minutes at 37° C. to reduce the disulfide bridges allowing to analyze both light and heavy chain. If present, azide-functionalities are reduced to amines under these conditions. […] The reduced IgG was analyzed by electrospray ionization time-of-flight (ESI-TOF) on a JEOL AccuTOF. […]

[2] = tested on: GlcNAc2-Man3-GlcNAc-GlcNAc(Fuc)-substituted trastuzumab (formula 27); experiment: Glycosyltransfer of GalNAz to galactosidase-trimmed trastuzumab, MS analysis; settings: UDP-GalNAz 0.5 mM, CeGalNAcT 0.1 mg/mL, 10 mM MnCl2, pH 8.0, 16 hours, 22° C.
Procedure: Trastuzumab (10 mg/mL) in 50 mM sodium phosphate pH 6.0 and β(1,4)-galactosidase (3 mU/mg IgG) from Streptococcus pneumoniae (commercially available from Calbiochem) was stirred for 16 hrs at 37° C. prior to analysis by MS. A single major heavy chain product was observed corresponding to trastuzumab with a GlcNAc2-Man3-GlcNAc-GlcNAc(Fuc)-substituted heavy chain (c=d=0, 50592 Da).
(§1) A solution of 50 μg (modified) IgG, 1 M Tris-HCl pH 8.0, 1 mM EDTA and 30 mM DTT with a total volume of approximately 70 μL was incubated for 20 minutes at 37° C. to reduce the disulfide bridges allowing to analyze both light and heavy chain. If present, azide-functionalities are reduced to amines under these conditions. Reduced samples were washed trice with milliQ using an Amicon Ultra-0.5, Ultracel-10 Membrane (Millipore) and concentrated to 10 μM (modified) IgG. The reduced IgG was analyzed by electrospray ionization time-of-flight (ESI-TOF) on a JEOL AccuTOF. Deconvoluted spectra were obtained using Magtran software.
Trastuzumab obtained after trimming with galactosidase (as in Formula 27, preparation described in Example 24) was subjected to the glycosyltransfer protocol with UDP-GalNAz and GalNAcT.

[3] = tested on: trimmed trastuzumab (core GlcNAc(Fuc) / core GlcNAc, glycan of formula (1)); experiment: Glycosyltransfer of sugar derivative to trimmed (Endo S deglycosylated) trastuzumab, MS analysis; settings: for major heavy chain product, F2-GalNAz transfer to core GlcNAc(Fuc)-substituted trastuzumab: UDP-F2-GalNAz 0.4 mM; for conversion of the starting material into two products: UDP-GalNProSH 2 mM
Procedure: Trimming of IgG glycans was performed using Endo S from Streptococcus pyogenes (commercially available from Genovis, Lund, Sweden). The IgG (10 mg/mL) was incubated with Endo S (40 U/mL) in 25 mM Tris pH 8.0 for approximately 16 hours at 37° C. The deglycosylated IgG was concentrated and washed with 10 mM MnCl2 and 25 mM Tris-HCl pH 8.0 using an Amicon Ultra-0.5, Ultracel-10 Membrane (Millipore).
Trastuzumab was subjected to the trimming protocol above. Analysis of the trimmed antibody was performed on a JEOL AccuToF equipped with an Agilent 1100 HPLC. Samples (2 μL) were reduced with DTT (2 μL) during 10 min and subsequently diluted with H2O (40 μL) prior to injection. […] The two peaks of heavy chain belonged to one major product (49496 Da, 90% of total heavy chain), resulting from core GlcNAc(Fuc) substituted trastuzumab, and a minor product (49351 Da, ±10% of total heavy chain), resulting from core GlcNac substituted trastuzumab. This is an example of a glycoprotein comprising a glycan according to formula (1).
as §1
Enzymatic introduction of galactose derivative (e.g. azido-containing sugar) onto IgG was effected with a GalNAc-transferase or a mutant thereof. The deglycosylated IgG (prepared as described above, 10 mg/mL) was incubated with a modified UDP-galactose derivative (e.g. an azido-modified sugar-UDP derivative) (0.4 mM) and GalNAcT (1 mg/mL) in 10 mM MnCl2 and 25 mM Tris-HCl pH 8.0 for 16 hours at 30° C. The functionalized IgG (e.g. azido-functionalized IgG) was incubated with protein A agarose (40 μL per mg IgG) for 2 hours at 4° C. The protein A agarose was washed three times with PBS and the IgG was eluted with 100 mM glycine-HCl pH 2.7. The eluted IgG was neutralized with 1 M Tris-HCl pH 8.0 and concentrated and washed with PBS using an Amicon Ultra-0.5, Ultracel-10 Membrane (Millipore) to a concentration of 15-20 mg/mL.
Enzymatic introduction of galactose derivative (e.g. thio-containing sugar 21) onto IgG was effected with a GalNAc-transferase or a mutant thereof. The deglycosylated IgG (prepared as described above, 10 mg/mL) was incubated with a modified UDP-galactose derivative (e.g. an thio-modified sugar-UDP derivative) (2 mM) and GalNAcT (0.2 mg/mL) in 10 mM MnCl2 and 50 mM Tris-HCl pH 6.0 for 16 hours at 30° C. The functionalized IgG (e.g. thio-functionalized trastuzumab) was incubated with protein A agarose (40 μL per mg IgG) for 1 hours at rt. The protein A agarose was washed three times with TBS (pH 6.0) and the IgG was eluted with 100 mM glycine-HCl pH 2.5. The eluted IgG was neutralized with 1 M Tris-HCl pH 7.0 and concentrated and washed with 50 mM Tris-HCl pH 6.0 using an Amicon Ultra-0.5, Ultracel-10 Membrane (Millipore) to a concentration of 15-20 mg/mL.

[4] = GalNAcT 1 mg/mL, 10 mM MnCl2, pH 8.0, 16 hours, 30° C.
[5] = UDP-GalNAz 0.4 mM, GalNAcT 1 mg/mL, 10 mM MnCl2, pH 8.0, 16 hours, 30° C.

Row | major heavy chain product ((GalNAz-GlcNAc)2-Man3-GlcNAc-GlcNAc(Fuc)-substituted) [2] | Molecule | conversion into GalNAz-GlcNAc-Man5-GlcNAc-GlcNAc(Fuc)-substituted trastuzumab [1] | major heavy chain product (GalNAz-GlcNAc-Man5-GlcNAc-GlcNAc(Fuc)-substituted) [1] | conversion into (GalNAz-GlcNAc)2-Man3-GlcNAc-GlcNAc(Fuc)-substituted trastuzumab [2] | major heavy chain product, F2-GalNAz transfer to core GlcNAc(Fuc)-substituted trastuzumab [3, 4] | major product, F2-GalNBAz transfer to core GlcNAc(Fuc) substituted trastuzumab heavy chain ([3]; UDP-F2GalNBAz 7 mM, CeGalNAcT 2 mg/mL, 10 mM MnCl2, pH 8.0, 30° C. overnight) | major product, GalNAz transfer to core GlcNAc(Fuc) substituted trastuzumab [3, 5] | minor product, GalNAz transfer to core GlcNAc substituted trastuzumab [3, 5] | conversion of the starting material into two products ([3]; CeGalNAcT 1 mg/mL, overnight) | conversion, GalNBzN3 transfer to core GlcNAc(Fuc) substituted trastuzumab ([3]; UDP-GalNBzN3 4 mM, TnGalNAcT 0.7 mg/mL, overnight) | conversion of the starting material into two products ([3]; TnGalNAcT 0.2 mg/mL, overnight) | conversion, GalNPyrN3 transfer to core GlcNAc(Fuc) substituted trastuzumab ([3]; UDP-GalNPyrN3 4 mM, TnGalNAcT 0.5 mg/mL, overnight)
1 | ~90 % of the total heavy chain products | CeGalNAcT: truncated Caenorhabditis elegans β-(1,4)-GalNAcT, amino acids 30-383 of SEQ ID NO: 2 (SEQ ID NO: 6) | complete conversion | ~90 % of the total heavy chain products | complete conversion | approximately 90 % of total heavy chain | approximately 90 % of total heavy chain | 90 % of total heavy chain | ~10 % of total heavy chain | Full conversion |  |  | 
2 |  | TnGalNAcT: truncated Trichoplusia ni β-(1,4)-GalNAcT, amino acids 33-421 of SEQ ID NO: 4 (SEQ ID NO: 8) (protein, TnGalNAcT(33-421)) SPLRTYLYTPLYNATQPTLRNVERLAANWPKKIPSNYIEDSEEYSIKNISLSNHTTRASVVHPPSSITETASKLDKNMTIQDGAFAMISPTPLLITKLMDSIKSYVTTEDGVKKAEAVVTLPLCDSMPPDLGPITLNKTELELEWVEKKFPEVEWGGRYSPPNCTARHRVAIIVPYRDRQQHLAIFLNHMHPFLMKQQIEYGIFIVEQEGNKDFNRAKLMNVGFVESQKLVAEGWQCFVFHDIDLLPLDTRNLYSCPRQPRHMSASIDKLHFKLPYEDIFGGVSAMTLEQFTRVNGFSNKYWGWGGEDDDMSYRLKKINYHIARYKMSIARYAMLDHKKSTPNPKRYQLLSQTSKTFQKDGLSTLEYELVQVVQYHLYTHILVNIDERS |  |  |  | approximately 90 % of total heavy chain |  |  |  |  | About 70% | Full conversion | About 50%
